Data: the nanobody polyreactivity screen of Harvey et al. (2022)

Test: yeast display, Sf9 membrane polyspecificity reagent, FACS + sequencing; frameworks hold sequencing errors
Method in brief: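 After 36–48 hours of galactose induction, yeast (Saccharomyces cerevisiae BJ5465) displaying a synthetic nanobody library were stained at 4 °C for 1 hour with 10% biotinylated, detergent-solubilized Sf9 membrane reagent. Streptavidin microbeads enriched the stained cells before FACS sorting into low and high (top ~1%) gates on anti-HA and streptavidin fluorescence. Each clone's polyreactivity label reflects its gate of origin.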

Sequence | polyreactivity (PSR sort gate)
QVQLIESGGGLVQAGGSLRLSCAASGSIFQYTMGWYRQAPGKERELVAAITRSGSSTYYADSVKGRFTISRDNAKNTVYLQMNSLKPEDTAVYYCAHTIRRVLGYGSWGQGTQVTVSS | high polyreactivity
QVQLKESCGGLVQAGGSLRLSCAASGTITYAPHKGWYRQAPGKERELVAGITIGGTTYYADSVKGRFTISRDNAKNTVYLQMNSLSPGDTAVYYCAAHSEQYTPFYYWGQGTQVTVSS | low polyreactivity
QVQLLDSGGGLVQAGGSLRLSCAASGSIFYLNAMGWYRQAPVKEREFVAAITLRGGSSYYADSVKGRFTISRDYANNTFYLQMKSLKPEDTAFYYCNAGVALTYVHDGDYWGQGTQVTVSS | low polyreactivity
QVQLLESCGGLVQAGGSLRLSCAASGRIFSYYVMGWYRQAPGKERELVAAITSGGSTNYADSVKGRFTISRDNAKISVYLQLTSLKPVDTAVYYFNRAYTYINRLYGYWGQGTEVTVSS | high polyreactivity
QVQLLESGGGIVQAGGSLRLSCAASGRTFYVYGMGWYRQAPGKERELVAAISKRGDNTYYADAVKGRFTISRDNAKNTVYLQMNSLKPEDTAVYYCNVKLYGGRSDYWGQGTQVTVSS | high polyreactivity
QVQLLESGGGLDQAGGSLRLSTAASGSTFGVYAMGWYRQARGKEREMVAAISRRGGSTYYADSVKGRFTISRDNAKNTVYLQMNSLKPEDTAVYYCAARGGQMEYWGQGTQVTVSS | high polyreactivity
QVQLLESGGGLFQTGGSLRLSCAASGRTFWNYAKGWYRQAPGKERELVAVIRFSDGSTYYADSVKGRFTISRDNAKNTVYLQMNSLKPQDTAVYYSAAKGPRRWGSGFDYWGQGTQVTVSS | low polyreactivity
QVQLLESGGGLLQAGGSLRLSCAASGRIFKFNAMGWYRQAPGKERELVAAISKRGGSTYYADSVKGRFTISRDNAKNTVYLQMNSLNPEDTAVYYCAAPIYNGYASWQVYYWGQGTQVTVSS | high polyreactivity
QVQLLESGGGLVKAGGSLRLTCADSGRTLYRYAMGWYRQAPGKERELVAAINQSGGRTYYADSVKGRFTISRDNAKNTVYLQMNSLKPDDTAVYYCNTASSRAFLTHGRYGRSDYWGQGTQVTVSS | high polyreactivity
QVQLLESGGGLVPARGSLRLSCAASGRIFPQYVMGWYRQAPGKEREFVATISYSGGRTYYADSVKGRFTISRDNAMNTVYVQMNSLKPEDTAVYDCAAGTSAGWADDYWGQGTQVTVSS | high polyreactivity
QVQLLESGGGLVQAGGILRLSCAASGRTLHYSAMGWYRQAPGIERELVAAISARGGRTYYADSVKGRFTISRDNAKNTVYLLMQTLKPEDTAVYYCAAAGYITRYDRYDYWGQGTHVTVSS | high polyreactivity
QVQLLESGGGLVQAGGSLRLSCAASASTFWFYAMGWYIQAPGKERELVAAISSTGSTNYADSVKGRFTISRDNAKNTVYLQMNSLKPEDTAVYYCATQEGPHKLDPRGYYWGQGTQVTVSS | low polyreactivity
QVQLLESGGGLVQAGGSLRLSCAASGGTFRVYAMGWYRQAPVKEWELVAAISSGGSTNYADSVKGRFTISRDNAKNTVYLQMNSLIPEDTAVSYCNAKYRYRFARSPIYFYWGQGTQVTVSS | low polyreactivity
QVQLLESGGGLVQAGGSLRLSCAASGITFPYYAMGWYRQAPGKERELVAAISSSGGSTYYADSVKGRFTISRDIAKNTVYLQMNSLKPEDTAVYYCAAQRYINYDYWGQGTQVTVSS | high polyreactivity
QVQLLESGGGLVQAGGSLRLSCAASGLIFAGNAMGWYRQAPGKERELVAAISSSGGRTYYADSVKGRFTFSRDNAKNTVYLQMYSLKPEDTAVYYCAAVRTGYYRQYDYWGQGTQVTVSS | high polyreactivity
QVQLLESGGGLVQAGGSLRLSCAASGLIFKYYAMGWYRQAPGKERELVAVITSSGGSTYYADSVKGRFTISRDNANNTVYLQMNSLKPEDTAVYYCAARRVRWPYDYWGQGTQVTVSS | high polyreactivity
QVQLLESGGGLVQAGGSLRLSCAASGLIYVNNPMGWYRKATGKETELVATISSGVSTNYADSVKGRFTISRENAKNSVYLHMNSLKPEDTAVYYCNKGQTVSRGYRLYERYDYWGQGTQVTVSS | low polyreactivity
QVQLLESGGGLVQAGGSLRLSCAASGLTFGWYAMGWYRQAPGKERELVAAITWNSGSTYYADSVKGRFTISRDNAKNTVYLQMNSLKPVDTAVYYCAAGYQDSQEYDYWGQGTQVTVSS | low polyreactivity
QVQLLESGGGLVQAGGSLRLSCAASGRIFLRYVMGWYRQAPGKERELVAAIRSNGGSTYADSVKGRFTSSRDNAKNTVYLHMNSLKPEDTAVYYCAARYVITKGSFVVGYGYWGQGTQVTVSS | high polyreactivity
QVQLLESGGGLVQAGGSLRLSCAASGRIFNYNVMGWYRQAPGKERELVAAISRRGTSTFYADSVKGRFTISRDNAKNTVYLQMNSLIPVDTAVYYCAADFYSNHYDYWGQGTQVTVSS | high polyreactivity
QVQLLESGGGLVQAGGSLRLSCAASGRIFVSNAMGWYRQAPGKERELVAAISKSGGRTYYADSVKGRFTISRDNAKNTVYLQMNSLKPEDTAVYYCAADIFTQGFDYWGQGTQVTVSS | high polyreactivity

Sequence | polyreactivity (PSR sort gate)
QVQLLESGGGLVQAGGSLRLSCAASGRIFYRYAMGWYRKAPGKERELVPAISRTGSRTYYADSVKGRFTISRDNAKNTVYLQMNSLKPEDTAVYYCNKVSAPAEFRSRGYWGQGTQVTVSS | high polyreactivity
QVQLLESGGGLVQAGGSLRLSCAASGRTFDWNMGWYRQAPGKERELVAGITFSVDSTYYADSVKGRFTISRDNAKNTVYLQMNSLKPEDTAYWGQGTQVSVSS | low polyreactivity
QVQLLESGGGLVQAGGSLRLSCAASGRTFRSYVMVWYRQAPGKERELVAAISRSGGSTYYADSVKGRFTISRDNAKNTVYLQMNSLKPEDTAVYYCATKRVLTGYDSWGQGTQVTVSS | high polyreactivity
QVQLLESGGGLVQAGGSLRLSCAASGSIFAYYAMGWYRQAPGKERELVAAISGTGGSTNYADSVKGRFTISRDNAKNTVYLQMNSLKPEDTAVYYCAKDYSFQWRNEFNLAGEYVYWGQGTQVTVSS | low polyreactivity
QVQLLESGGGLVQAGGSLRLSCAASGSIFRGNAMGWYRQAPGKERELVAAISQRGTSTYYADSVKGRFTISRDYAKNTVYLQMNSLKPEDTAVYYCNALYWQIGDDYWGQGTQVTVSS | high polyreactivity
QVQLLESGGGLVQAGGSLRLSCAASGSTFDDYAMGWYRQAPGKEREFVAAIDWSGGSTYYADSVKGRFTISRDNAKYSVYLQMKSLKPEVTAVYYCNADPDVSFDYWGQGTQVTVSS | low polyreactivity
QVQLLESGGGLVQAGGSLRLSCAASGSTFEANTMGWYSQAPGKDRELVASISSSGGSTNYADSVKGRFTISRDNAKNTVYLQMNRLKQEDTAVYYCAVRCTYARWNWRTADSSRDYWGQGTQVTVSS | low polyreactivity
QVQLLESGGGLVQAGGSLRLSCAASGSTFPWYTMGWYRQAPGKERELVAPISNGGSTNYADSVKGRFTISRDNAKNTVYLQMNSLIPEDTAVYYCNARIPPYRWYQVSRGHGYWGQGTQVTVSS | high polyreactivity
QVQLLESGGGLVQAGGSLRLSCAASGSTLNVYGMGWYRQAPGQERELVAAINRDGITYADSVKGRCTISRDNAKNTVYLQMNSLKPEDTAVYYCAGDPYDNSVPGWRRNMDYWGQGTQVTVSS | low polyreactivity
QVQLLESGGGLVQAGGSLRLSCAASGWYRQAPGKERELVAAITYSGGSTYYADSVKGRFTISRDNAKNTVYLQMNSLKPEDTAVYYCAVATGLLYKSHGYWGQGTQVTVSS | low polyreactivity
QVQLLESGGGLVQAGGSLRLSCAASGYIILRNAMGWYRQAPGKERELVAAIRRTGGSTYYADSLKGRFTISRDNAKNTVYLLLNSLKPEDTAVYSCAKRSYTGFEYWGQGTQVTVSS | low polyreactivity
QVQLLESGGGLVQAGGSLRLSCAATGRIFAPYTMGWYRQAPGTEMEMFAVISKRGGNTYYADSVKGRFTISRDNAKNTVYLQMNSLKPEATAVYFCNADWQFRVYLGGPGTHGYDYWGQGTQVTVSS | low polyreactivity
QVQLLESGGGLVQAGGSLRLSCAPSGRTLVHYGMGWYRHAPGKERELVAAISYSGGRTYYADSVKGRVTISRDNAKNTVYLQMNSLKPEDTAVYYCAKDFGSYQRRYGYWGQGTQVTVSS | high polyreactivity
QVQLLESGGGLVQAGGSLRLSCMASGSILGDRMSWYLQPPGKEHELVATIYDGGITYYADSMKGRFTISRDNAKNTVYLQMNSLRPEDTAVYYCGASFEGYRYNVYCGQGTQVTVSS | low polyreactivity
QVQLLESGGGLVQAGGSLRLSCMASGSILGDRMSWYRQAPGKEHELVATIYDGGITYYADSMKGRFTISRDNAKNTLYLQMNSLRPEDTAVYYCGACFEGYRYHVYCGQGTQVTVSS | low polyreactivity
QVQLLESGGGLVQAGGSLRLSCPPSGFIFPRNVMGWYRQAPGKERELVAAISRSGGSTYYADSVKGRYTISRDNAKNTVYLQLNSQKPEDTAVYYCAAEIPVYQGTGDYDYWGQGTQVTVSS | low polyreactivity
QVQLLESGGGLVQAGGSLRLSFAASGSTSRKYAMGLYRQAPGKERVLVAGITKGGGGTYYADSVKGRFTISRDNAKNTVYLLMNSLKPEDTAVYYCAKYYGSGYYIYDYWGLGTQVTVSS | low polyreactivity
QVQLLESGGGLVQAGGSLRLTCAASGRTFGRYAKGWYRQAPGKERELVADITGGGSTNYADSVKGRFTISRDNAKNTVYLQMKSLKPEDTAVYYCAAGFHKRVTPEILYDYWGQGTQVTVSS | low polyreactivity
QVQLLESGGGLVQAGGSLRLTCAASGSTFRYNAMGWYRQAPGKERELVAAISSGSSTNYADSVKGRFTLSRDNAKNTVYLQMNSLKPEDTAVYYCAAQPGYYDDFYYWGQGTQVTVSS | low polyreactivity
QVQLLESGGGLVQAGRSLRLSCAASGSIFRSYAMGWSRQAPGKERELVAAISRRGGSTYYADSVKGRFTISRDNAKNTVYLQMNSLKPEDTAVYYCAADRTGPYDYWGQGTQVTVSS | high polyreactivity
